# Assay results taken from paper PMC8079656, “The msaABCR Operon Regulates Persister Formation by Modulating Energy Metabolism in Staphylococcus aureus”.
# B1: ccpE promoter probe (ccpE_EMSA) (dsDNA)
# DNA 1: GTTAGTAATGAACTCATGAATGCTTGTGCCATGAAAGTTCAATAATTGAATAATTTATGGGG
# DNA 2: CCCCATAAATTATTCAATTATTGAACTTTCATGGCACAAGCATTCATGAGTTCATTACTAAC
# B2: ndh2 ssDNA probe (ndh2_EMSA) (ssDNA)
# DNA: GTCTTTTTTGTGAACATCACAGGTTTTTACATAATTTAAAAGACTTAAATAACAAAATGATGATAAACTAGTATA
# B3: ndh2 dsDNA, same region (dsDNA)
# DNA 1: GTCTTTTTTGTGAACATCACAGGTTTTTACATAATTTAAAAGACTTAAATAACAAAATGATGATAAACTAGTATA
# DNA 2: TATACTAGTTTATCATCATTTTGTTATTTAAGTCTTTTAAATTATGTAAAAACCTGTGATGTTCACAAAAAAGAC
# B4: gudB promoter probe (gudB_EMSA) (dsDNA)
# DNA 1: GGAAATTCAATATGTTTGAAAGCGAATCATTAGGTAAAGAAGAGGCGAAAAGGATC
# DNA 2: GATCCTTTTCGCCTCTTCTTTACCTAATGATTCGCTTTCAAACATATTGAATTTCC
# Assays:
# MsaB-His [1] = target: T1, MsaB-His (Staphylococcus aureus USA300 LAC, UniProt Q2FH36 1-66); assay: EMSA; 5 mM MgCl2, poly(dI-dC); shift reversed by 100-fold unlabeled probe; conditions: protein: recombinant; tags: 6xHis; label: biotin (5'); blunt
# T1 sequence: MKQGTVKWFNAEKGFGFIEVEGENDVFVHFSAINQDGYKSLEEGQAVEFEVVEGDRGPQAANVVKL
# MsaB-His [2] = target: T1, MsaB-His; assay: EMSA; 5 mM MgCl2, poly(dI-dC); shift reduced by 100-fold unlabeled probe; conditions: protein: recombinant; tags: 6xHis; label: biotin (5')
# MsaB-His [3] = target: T1, MsaB-His; assay: EMSA; 5 mM MgCl2, poly(dI-dC); conditions: protein: recombinant, tags: 6xHis, blunt
binder,measurement,setting,value
B1,binding result,MsaB-His [1],binds
B2,binding result,MsaB-His [2],binds
B3,binding result,MsaB-His [3],no binding
B4,binding result,MsaB-His [3]; label: biotin (5'),no binding
